# In the supplement of paper PMC11780869:
# Tested on: Bacillus subtilis
# Test: cleaved RNA product abundance (RNA/gDNA barcode ratio) relative to median wild-type variant (ratio to wild type); higher = more accumulation of the downstream cleavage product
# Method in brief: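 Reporter mRNAs (truncated aprE or tetM) carrying barcoded, mutagenized RNase Y cleavage-site windows were made from oligos with a 9% error rate and integrated into the B. subtilis chromosome. Cultures grew in LB at 37°C from OD600 0.0003 to 0.3. Cleaved RNA was gel-selected, reverse transcribed and barcode-sequenced alongside genomic DNA barcodes, with UMI collapsing. Cleaved product abundance is the RNA:gDNA barcode ratio per variant, scaled to the median wild-type variant.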
# [1] = experiment (reporter, strain, medium): exp 2b: truncated aprE reporter, strain BJT200, cleavage site: cggR-gapA (positions -7 to +36 mutated)
# [2] = experiment (reporter, strain, medium): exp 4a: truncated aprE reporter, strain BJT201 with 2% xylose (RNase J1 expressed), cleavage site: cggR-gapA (positions -7 to +36 mutated)
# [3] = experiment (reporter, strain, medium): exp 8a: truncated aprE reporter, strain BJT201 with 2% xylose (RNase J1 expressed), cleavage site: glnRA (positions -5 to +31 mutated)
Sequence,cleaved RNA product abundance [1],cleaved RNA product abundance [2],also measured
ACAGACGAAGGAGCCGCAAAGAAGTTATTAAGGGAAGAATAATCCTTCAATATAAATATCTCTCACTTATTTAAA,0.13,0.144,–
ACAGACGAAGGAGCCGCAAAGAAGTTATTAAGGGATGAATCATCCCTCACTATAAATATCTCTCACTTATTTAAA,–,0.22,–
CGACATGTCCCGCTTCTTTCATTAATCCGTTAGCAACCGTTTTGGTATATACATTTACCTTTTAAGAGGAGGAAT,–,–,cleaved RNA product abundance [3]: 0.187
ACAGACGAAGGAGCCGCAAAGAAGTTATTAATGGATGAATAATCCCTCAATATACATATCTCTCACTTATTTAAA,0.157,0.165,–
ACAGACGAAGGAGCCGCAAAGAAGTTATCAAGGGATCAATAATCCCTCAATATAAATATCTCTCACTTATTTAAA,0.24,–,–
ACAGACGAAGGAGCCGCAAAGAATTTATTAAGGGTTGAATAATCCCTCAATATAAATATCTCTCACTTATTTAAA,–,0.388,–
ACAGACGAAGGAGCCGCAAAGAAGTTATTAACGGAGGAATAATCCCTCAATATAAATATCTCTCACTTATTTAAA,–,0.171,–
CGACATGTCCCGCTTCTTTCATTAATCCGTTAGCAAGTGTTTTGCTAAATACATTTACCTTTTAAGAGGAGGAAT,–,–,cleaved RNA product abundance [3]: 0.596
CGACATGTCCCGCTTCTTTCATTAATCCGTTCCCAACTGTTTTGCTATATACATTTACCTTTTAAGAGGAGGAAT,–,–,cleaved RNA product abundance [3]: 0.392
ACAGACGAAGGAGCCGCAAAGAAGTTATTAAGAGCTGAATAATCCCTCAATATAAATATCTCTCACTTATTTAAA,0.0922,–,–
ACAGACGAAGGAGCCGCAAAGAAGTTATTAAGGTATGAATAATCCCTCAAAATAAATATCTCTCACTTATTTAAA,0.108,0.115,–
CGACATGTCCCGCTTCTTTCATTAATCCGTTAGCAACTGTTTTGCTATATACATATAACTTTTAAGAGGAGGAAT,–,–,cleaved RNA product abundance [3]: 1.73
ACAGACGAAGGAGCCGCAAATAAGTTATTAACGGATGAATAATCCCTCAATATAAATATCTCTCACTTATTTAAA,0.113,0.157,–
ACAGACGAAGGAGCCGCAAAGAATTTATTAAGGGATGCATAATCCCTCAATATAAATATCTCTCACTTATTTAAA,0.535,0.597,–
ACAGACGAAGGAGCCGCAAAGCAGTTAATAAGGGATGAATAATCCCTCAATATAAATATCTCTCACTTATTTAAA,–,0.298,–
ACAGACGAAGGAGCCGCAAAGAAGTTATTAAGGGATGAATAATCTCTCAATATAAAAATCTCTCACTTATTTAAA,0.464,0.43,–
ACAGACGAAGGAGCCGCAAAGAAGTTATTAAGGGATTAATAATCCCTCAACATAAATATCTCTCACTTATTTAAA,–,0.444,–
ACAGACGAAGGAGCCGCAAAGAAGTTACTATGGGATGAATAATCCCTCAATATAAATATCTCTCACTTATTTAAA,–,0.228,–
ACAGACGAAGGAGCCGCAAAGAAGTTATTAAGGGAGGAATAATCTCTCAATATAAATATCTCTCACTTATTTAAA,–,0.198,–
ACAGACGAAGGAGCCGCAAAGAAGTTATTCAGGGATGAATAATCCCCCAAAATAAATATCTCTCACTTATTTAAA,–,0.165,–

Sequence,cleaved RNA product abundance [1],cleaved RNA product abundance [2],also measured
ACAGACGAAGGAGCCGCAAATAATTTATTAAGGGATGAATAATCCCTCAATATAAATATCTCTCACTTATTTAAA,0.866,0.591,–
ACAGACGAAGGAGCCGCAAAGAAGTTATTAAGCGATGAATTATCCCTCAATATAAATATCTCTCACTTATTTAAA,0.101,0.101,–
CGACATGTCCCGCTTCTTTCATTAATCCCTTAGCAACTGTTTTGCTATATATATTTACCTTTTAAGAGGAGGAAT,–,–,cleaved RNA product abundance [3]: 0.163
ACAGACGAAGGAGCCGCAAAGAACTTATTAAGGGATGTATAATCCCTCAATATAAATATCTCTCACTTATTTAAA,–,0.637,–
ACAGACGAAGGAGCCGCAAAGAAGTTATTAAGGGATGAACAATGCCTCAATATAAATATCTCTCACTTATTTAAA,–,0.136,–
ACAGACGAAGGAGCCGCAAAGAAGTTATTAAGGGATGAATAATCCCTAAATATACATATCTCTCACTTATTTAAA,0.498,0.465,–
CGACATGTCCCGCTTCTTTCATTAATCCGTTAGCAACTGTTTTGCTATATACTTATACCTTTTAAGAGGAGGAAT,–,–,cleaved RNA product abundance [3]: 0.926
ACAGACGAAGGAGCCGCAAAAAAGTTATTAAGGGATGAATAAACCCTCTATATAAATATCTCTCACTTATTTAAA,–,0.22,–
ACAGACGAAGGAGCCGCAAAGAAGTTATTAAGTGATGAATATTCCCTCAATATAAATATCTCTCACTTATTTAAA,–,0.102,–
CGACATGTCCCGCTTCTTTCATTAATCCGTTAGCAACTGTTTTGTTATATACATTTACGTTTTAAGAGGAGGAAT,–,–,cleaved RNA product abundance [3]: 0.39
ACAGACGAAGGAGCCGCAAAGAACTTATCAAGGGATGAATAATCCCTCAATATAAATATCTCTCACTTATTTAAA,–,0.32,–
CGACATGTCCCGCTTCTTTCATTAATCCATTAGAAACTGTTTTGCTATATACATTTACCTTTTAAGAGGAGGAAT,–,–,cleaved RNA product abundance [3]: 0.244
CGACATGTCCCGCTTCTTTCATTAATCCGTTAGCAACTGTTTTACTATATACATCTACCTTTTAAGAGGAGGAAT,–,–,cleaved RNA product abundance [3]: 0.506
ACAGACGAAGGAGCCGCAAAGAAGTTATTAAGGGATGTATAATCCCTAAATATAAATATCTCTCACTTATTTAAA,0.551,0.748,–
ACAGACGAAGGAGCCGCAAAGAAACTATTAAGGGATGAATAATCCCTCAATATAAATATCTCTCACTTATTTAAA,0.644,0.557,–
CGACATGTCCCGCTTCTTTCATTAATCCGTTAGCAACTTTTTTGCAATATACATTTACCTTTTAAGAGGAGGAAT,–,–,cleaved RNA product abundance [3]: 0.494
ACAGACGAAGGAGCCGCAAAGAAGTTATTAAGTGATGAATACTCCCTCAATATAAATATCTCTCACTTATTTAAA,–,0.181,–
CGACATGTCCCGCTTCTTTCATTAATCCGTTAGCAACTTTTTCGCTATATACATTTACCTTTTAAGAGGAGGAAT,–,–,cleaved RNA product abundance [3]: 0.662
CGACATGTCCCGCTTCTTTCATTAATCCATTTGCAACTGTTTTGCTATATACATTTACCTTTTAAGAGGAGGAAT,–,–,cleaved RNA product abundance [3]: 0.236
ACAGACGAAGGAGCCGCAAAGAAGTTATTAAGGGATGAATAATCCCTCAATATAAATATGTCTCACTTATTTAAA,–,0.713,–

Sequence,cleaved RNA product abundance [1],cleaved RNA product abundance [2],also measured
ACAGACGAAGGAGCCGCAAAGAAGTTATTAAGGGATGAATAATCCGTCAATATAATTATCTCTCACTTATTTAAA,–,0.119,–
CGACATGTCCCGCTTCTTTCATTAATCCTTTAGCATCTCTTTTGCTATATACATTTACCTTTTAAGAGGAGGAAT,–,–,cleaved RNA product abundance [3]: 0.512
CGACATGTCCCGCTTCTTTCATTAATCAGTCAGCAACTGTTTTGCTATATACATTTACCTTTTAAGAGGAGGAAT,–,–,cleaved RNA product abundance [3]: 0.367
ACAGACGAAGGAGCCGCAAAGAAGTTATTAAGGGATGAATTATCCCTCAATATAAATATCTCTCACTTATTTAAA,0.687,0.845,"cleaved RNA product abundance (experiment (reporter, strain, medium): exp 6: tetM reporter, strain 168, cleavage site: cggR-gapA (positions -7 to +36 mutated)): 0.559"
ACAGACGAAGGAGCCGCAAAGTAGTTATTAAGAGATGAATAATCCCTCAATATAAATATCTCTCACTTATTTAAA,0.126,0.124,–
ACAGACGAAGGAGCCGCAAAGAAGTTATTAAGGGATGAACAATCCCTCGATATAAATATCTCTCACTTATTTAAA,–,0.554,–
ACAGACGAAGGAGCCGCAAAGAAGTTATCAAGGAATGAATAATCCCTCAATATAAATATCTCTCACTTATTTAAA,–,0.11,–
ACAGACGAAGGAGCCGCATAGAAGTTATTAAGGCATGAATAATCCCTCAATATAAATATCTCTCACTTATTTAAA,0.0988,0.13,–
ACAGACGAAGGAGCCGCAAAGAAGTTATTAAGGACTGAATAATCCCTCAATATAAATATCTCTCACTTATTTAAA,0.0791,0.0888,–
CGACATGTCCCGCTTCTTTCATTAATCCGTTAGCAACTGTTTTGCTGTATAAATTTACCTTTTAAGAGGAGGAAT,–,–,cleaved RNA product abundance [3]: 0.199
ACAGACGAAGGAGCCGCAAAGAAGTTATTAAGGGATGAAAACTCCCTCAATATAAATATCTCTCACTTATTTAAA,0.816,–,–
CGACATGTCCCGCTTCTTTCATTAATCCGTTACCAACTGTTTTGCCATATACATTTACCTTTTAAGAGGAGGAAT,–,–,cleaved RNA product abundance [3]: 0.145
ACAGACGAAGGAGCCGCAAAGAAGTTATGAAGGGATGAATAATTCCTCAATATAAATATCTCTCACTTATTTAAA,0.274,0.316,–
CGACATGTCCCGCTTCTTTCATTAATCCGTTAGCAACTGTTTTGCTATATACGTTTACCTTTTAAGAGGAGGAAT,–,–,cleaved RNA product abundance [3]: 0.361
ACAGACGAAGGAGCCGCTAAGAAGTTATTAAGGTATAAATAATCCCTCAATATAAATATCTCTCACTTATTTAAA,–,0.0621,–
ACAGACGAAGGAGCCGCAAAGAAGTTATTAAGCGATGAATAAGCCCTCAATATAAATATCTCTCACTTATTTAAA,–,0.108,–
ACAGACGAAGGAGCCGCAAAGAAGTAATTAAGGGATGAATAAACCCTCATTATAAATATCTCTCACTTATTTAAA,–,0.148,–
ACAGACGAAGGAGCCGCTAAGAAGTTATTAAGTGATGAATAATCCCTCAATATAAATATCTCTCACTTATTTAAA,–,0.167,–
ACAGACGAAGGAGCCGCAAAGAAGTTATTAAGGGATCAATACTCCCTCAATATAAATATCTCTCACTTATTTAAA,–,0.579,–
ACAGACGAAGGAGCCGCAAAGAAGTTATTAAGGGATGAATAATACCTCGATATAAATATCTCTCACTTATTTAAA,0.0828,0.103,–
